Measurements reported in patent publication US7005258 (NATIONAL INSTITUTES OF HEALTH, dated 2006).

Target: T1, human cdc2 (p34^cdc2, endogenous, HeLa cells) (human, UniProt P06493 1-297)
T1 construct: On p13 beads it is present as cdc2/cyclin B; also called p34^cdc2 kinase
Assay: precipitation on p13 beads from HeLa lysate

T1 sequence (P06493 whole entry): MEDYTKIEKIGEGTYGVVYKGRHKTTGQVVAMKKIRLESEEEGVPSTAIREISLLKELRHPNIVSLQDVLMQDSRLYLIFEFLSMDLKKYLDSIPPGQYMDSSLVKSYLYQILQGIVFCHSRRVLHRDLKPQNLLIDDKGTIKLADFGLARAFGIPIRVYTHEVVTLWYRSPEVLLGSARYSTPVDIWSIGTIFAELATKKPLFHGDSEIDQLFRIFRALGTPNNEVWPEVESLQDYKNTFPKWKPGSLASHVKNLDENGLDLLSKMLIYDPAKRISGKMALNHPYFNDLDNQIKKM

binding result: binds
B1: p13 protein encoded by the suc1 gene (other, fission yeast, UniProt P08463 1-113, looked up)
chain: MSKSGVPRLLTASERERLEPFIDQIHYSPRYADDEYEYRHVMLPKAMLKAIPTDYFNPETGTLRILQEEEWRGLGITQSLGWEMYEVHVPEPHILLFKREKDYQMKFSQQRGG
notes: also called p13-Suc1; p13 (Sucl)
